B1: EEHEE_rd4_0763 (parent)
chain: LTVHVGNVTYHFDNPEQAEEWAKRMAKKYQGQIHVKDGQFRIE

Variants of: B1
Assay: folding stability dG (cDNA display proteolysis); higher = more stable
Details: PBS, room temperature

Folding stability dG [kcal/mol]: each site, then its substitutions
E16: K 1.77; N 1.56; H 1.85; A 1.68; I 1.66; D 1.59; G 1.48; R 1.74; C 2.54; P 0.809; M 1.66; F 1.63; L 1.68; Q 1.69
N7: Y 1.62; W 1.65
N14: R 1.45; L 1.59; H 1.57; E 1.36; D 1.81; W 1.24; Y 1.43; I 1.49; S 1.67; G 1.03; K 1.6; F 1.47; P -0.002; V 1.39; T 1.76; Q 1.37; A 1.42; M 1.31
H11: F 1.75; G 0.755; K 1.6; A 1.31; D 0.923; P 0.551; N 1.25; T 1.67; S 1.43; M 1.49; L 1.5; E 1.23; I 1.56; V 1.61; Y 1.85; Q 1.45; R 1.58; C 2.74; W 1.71
P15: Q 1.6; N 1.38; S 1.69; L 1.86; A 1.7; H 1.7; E 1.47; F 1.94; T 1.58; Y 2.17; K 1.78; V 1.71; G 1.23; R 1.88; I 1.78; D 1.17; C 1.86; W 1.91; M 1.73
F12: H 0; M 0.22; G -0.264; V 0.101; I 0.276; Q -0.143; R -0.481; P -0.199; K -0.024; W 0.638; N -0.088; D -0.211; E -0.274; T -0.063; Y 0.446; A 0.274; S 0.081; C 1.44; L 0.531
D13: R 1.47; F 1.36; L 1.51; G 1.37; W 1.4; Y 1.34; Q 1.57; C 2.24; V 1.46; I 1.48; E 1.6; T 1.74; H 1.37; M 1.49; K 1.67; A 1.43; S 1.7; P 1.45; N 1.72
Y10: Q 0.381; C 1.77; L 0.997; D 0.031; K 0.806; H 0.965; F 1.54; T 0.369; I 0.978; W 1.85; M 0.903; E 0.183; A 0.513; G 0.153; S 0.143; P 0.292; R 1.18; V 0.913; N 0.135
T9: M 1.55; R 1.4; V 1.98; A 1.58; D 1.01; F 1.37; L 1.58; S 1.4; K 1.38; N 0.836; H 1.47; G 0.696; P 0.963; E 1.29; Q 1.29; I 1.92; W 1.28; Y 1.45; C 2.01
V8: S 1.37; R 1.96; M 1.69; C 3.03; K 1.74; I 1.7; G 0.756; A 1.58; H 1.72; F 1.8; N 1.41; P 0.43; Q 1.58; D 1.19; Y 1.78; W 1.81; T 1.53; L 1.66; E 1.36

Reference: the MegaScale stability set (Tsuboyama et al. 2023)
